Where two headings read alike, the source gives them in different places.

Assay in all cases: NMR
Data set [1] has as its target T1, LS2 RRM1 (Drosophila melanogaster, UniProt Q9W1T4 110-204).
The next data set has as its target LS2 RRM2 (Drosophila melanogaster, UniProt Q9W1T4 242-319).
For the next data set, the target named is T2, LS2 linker-RRM2 (Drosophila melanogaster, UniProt Q9W1T4 204-325).
T2 sequence: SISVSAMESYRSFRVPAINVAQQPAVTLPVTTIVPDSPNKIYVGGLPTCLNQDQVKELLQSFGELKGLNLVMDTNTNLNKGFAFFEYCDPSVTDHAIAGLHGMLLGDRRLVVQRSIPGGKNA

A further data set deals with LS2 RRM1,2 (Drosophila melanogaster, UniProt Q9W1T4 110-325).
The target in data set [2] is T1, LS2 RRM1. This is another data set of the same source.

Take GGGGAGGAGGGGGGCGUAUGA (structured_RNA) [21-mer G4 RNA]: the binding result with LS2 RRM1 [1], in the data set with LS2 RRM2, with LS2 linker-RRM2 and in the data set with LS2 RRM1,2 was “binds” throughout.

In the case of GGGUGGUGGAGGGG (structured_RNA) [14-mer], the binding result is listed as “no binding” in the data set with LS2 RRM2 and “binds” with LS2 RRM1 [2].

Regarding CGUAUGA (ssRNA) [7-mer (3' end of 21-mer)], the binding result with LS2 RRM2 is on record as “no binding”.

Regarding GGUGGUGG (structured_RNA) [8-mer], in the data set with LS2 RRM1 [2], the binding result was “binds”.
